Results taken from patent US20260285997 (published 2026).
“And” between values parts separate entries of the source, which are not always exact repeats. Equal entries are not always repeated.

T1: CD206 (human, UniProt P22897)
T1 chain: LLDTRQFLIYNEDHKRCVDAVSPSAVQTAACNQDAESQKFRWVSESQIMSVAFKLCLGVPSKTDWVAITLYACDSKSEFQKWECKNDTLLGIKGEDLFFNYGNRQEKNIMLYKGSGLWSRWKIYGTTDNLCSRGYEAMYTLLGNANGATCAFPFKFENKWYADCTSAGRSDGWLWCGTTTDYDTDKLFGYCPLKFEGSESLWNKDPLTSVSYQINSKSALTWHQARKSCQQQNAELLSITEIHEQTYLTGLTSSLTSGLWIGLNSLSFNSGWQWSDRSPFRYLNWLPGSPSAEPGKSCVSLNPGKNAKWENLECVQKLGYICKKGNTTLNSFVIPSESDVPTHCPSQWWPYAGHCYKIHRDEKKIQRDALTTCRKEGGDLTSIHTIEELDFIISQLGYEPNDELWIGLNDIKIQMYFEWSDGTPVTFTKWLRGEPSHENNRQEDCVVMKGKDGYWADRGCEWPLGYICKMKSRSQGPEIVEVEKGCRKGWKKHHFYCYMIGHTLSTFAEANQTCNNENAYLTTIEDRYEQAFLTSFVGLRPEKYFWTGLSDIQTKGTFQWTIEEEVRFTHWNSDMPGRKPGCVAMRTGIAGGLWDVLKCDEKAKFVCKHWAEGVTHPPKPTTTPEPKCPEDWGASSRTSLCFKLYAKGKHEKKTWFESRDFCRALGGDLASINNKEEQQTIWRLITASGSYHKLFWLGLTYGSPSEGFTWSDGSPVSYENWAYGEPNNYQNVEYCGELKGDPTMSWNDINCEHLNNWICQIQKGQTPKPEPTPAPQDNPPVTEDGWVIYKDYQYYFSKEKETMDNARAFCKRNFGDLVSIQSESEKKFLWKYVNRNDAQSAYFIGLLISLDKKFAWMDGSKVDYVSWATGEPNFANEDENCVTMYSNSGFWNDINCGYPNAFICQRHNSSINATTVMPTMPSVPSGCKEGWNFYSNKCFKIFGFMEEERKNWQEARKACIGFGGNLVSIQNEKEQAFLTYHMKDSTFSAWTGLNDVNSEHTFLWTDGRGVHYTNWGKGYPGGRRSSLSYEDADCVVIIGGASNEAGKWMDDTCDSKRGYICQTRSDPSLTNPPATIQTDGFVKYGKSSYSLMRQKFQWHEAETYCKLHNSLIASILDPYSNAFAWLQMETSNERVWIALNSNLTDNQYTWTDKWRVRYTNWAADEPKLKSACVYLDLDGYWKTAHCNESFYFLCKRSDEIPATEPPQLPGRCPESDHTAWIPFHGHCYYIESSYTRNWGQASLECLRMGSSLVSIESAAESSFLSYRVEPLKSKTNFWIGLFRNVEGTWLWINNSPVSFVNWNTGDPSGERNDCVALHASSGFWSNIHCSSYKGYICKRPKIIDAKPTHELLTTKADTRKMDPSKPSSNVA

B1: BEAT 1a1 FLAG arm (antibody)
chain: DVVMTQSPDSLAVSLGERATINCKSSQSIVHRNGNTYLEWYQQKPGQPPKLLIYKVSNRFSGVPDRFSGSGSGTDFTLTISSLQAEDVAVYYCFQGSHVPYTFGGGTKLEIKGGGGSGGGGSGGGGSQVQLVQSGAEVKKPGASVKVSCKASGYSFTTYTIHWVRQAPGQGLEWIGYINPSSGYAAYNQKFQGRVTLTADKSTSTAYMELSSLRSEDTAVYYCAREKFYGYDYWGQGTTVTVSS
B2: BEAT 1a4 FLAG arm (antibody)
chain: B1 chain
B3: BEAT 1a2 FLAG arm (antibody)
chain: B1 chain
B4: BEAT 1a3 FLAG arm (antibody)
chain: B1 chain
B5: BEAT 1a5 FLAG arm (antibody)
chain: QVQLVQSGAEVKKPGASVKVSCKASGYSFTTYTIHWVRQAPGQGLEWIGYINPSSGYAAYNQKFQGRVTLTADKSTSTAYMELSSLRSEDTAVYYCAREKFYGYDYWGQGTTVTVSSGGGGSGGGGSGGGGSGGGGASDVVMTQSPDSLAVSLGERATINCKSSQSIVHRNGNTYLEWYQQKPGQPPKLLIYKVSNRFSGVPDRFSGSGSGTDFTLTISSLQAEDVAVYYCFQGSHVPYTFGGGTKLEIK
B6: BEAT 1a6 FLAG arm (antibody)
chain: B5 chain
B7: BEAT 1a8 FLAG arm (antibody)
chain: B5 chain
B8: BEAT 1a7 FLAG arm (antibody)
chain: B5 chain
B9: BEAT 2a7 FLAG arm (antibody)
chain: B5 chain
B10: BEAT 1a1 CD40 arm (antibody, V domains shown)
VH: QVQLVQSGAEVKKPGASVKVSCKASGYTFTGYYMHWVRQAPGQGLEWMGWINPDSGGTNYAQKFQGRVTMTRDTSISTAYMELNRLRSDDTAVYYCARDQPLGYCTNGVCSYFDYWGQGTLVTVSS
VL: DIQMTQSPSSVSASVGDRVTITCRASQGIYSWLAWYQQKPGKAPNLLIYTASTLQSGVPSRFSGSGSGTDFTLTISSLQPEDFATYYCQQANIFPLTFGGGTKVEIK
B11: BEAT 1b4 CD40 arm (antibody, V domains shown)
VH: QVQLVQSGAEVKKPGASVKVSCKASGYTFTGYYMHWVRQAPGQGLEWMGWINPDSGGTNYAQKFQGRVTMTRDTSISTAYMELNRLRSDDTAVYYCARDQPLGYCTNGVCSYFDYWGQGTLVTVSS
VL: B10 VL
B12: BEAT 1a6 CD40 arm (antibody, V domains shown)
VH: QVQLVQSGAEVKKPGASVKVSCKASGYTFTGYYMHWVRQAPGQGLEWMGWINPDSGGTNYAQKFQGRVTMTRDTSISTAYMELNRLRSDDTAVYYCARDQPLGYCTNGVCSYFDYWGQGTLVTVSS
VL: B10 VL
B13: BEAT 1a4 CD40 arm (antibody, V domains shown)
VH: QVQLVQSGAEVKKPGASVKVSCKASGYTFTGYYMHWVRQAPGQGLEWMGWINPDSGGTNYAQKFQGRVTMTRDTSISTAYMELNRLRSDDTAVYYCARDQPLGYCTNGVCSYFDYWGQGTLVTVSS
VL: B10 VL
B14: BEAT 1a5 CD40 arm (antibody, V domains shown)
VH: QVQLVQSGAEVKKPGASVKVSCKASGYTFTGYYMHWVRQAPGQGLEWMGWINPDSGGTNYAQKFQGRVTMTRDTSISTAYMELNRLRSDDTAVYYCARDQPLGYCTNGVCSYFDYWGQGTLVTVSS
VL: B10 VL
B15: BEAT 1b2 CD40 arm (antibody, V domains shown)
VH: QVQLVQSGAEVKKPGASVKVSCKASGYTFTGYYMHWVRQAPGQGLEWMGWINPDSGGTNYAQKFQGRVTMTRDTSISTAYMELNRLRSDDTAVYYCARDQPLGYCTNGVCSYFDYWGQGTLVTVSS
VL: B10 VL
B16: BEAT 1a3 CD40 arm (antibody, V domains shown)
VH: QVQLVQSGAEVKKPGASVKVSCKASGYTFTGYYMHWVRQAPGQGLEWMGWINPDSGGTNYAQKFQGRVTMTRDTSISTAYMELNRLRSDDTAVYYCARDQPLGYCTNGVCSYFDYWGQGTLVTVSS
VL: B10 VL
B17: BEAT 1b1 CD40 arm (antibody, V domains shown)
VH: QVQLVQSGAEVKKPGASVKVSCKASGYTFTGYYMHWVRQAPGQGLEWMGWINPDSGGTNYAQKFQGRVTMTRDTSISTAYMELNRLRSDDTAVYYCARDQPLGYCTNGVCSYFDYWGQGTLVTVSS
VL: B10 VL
B18: anti-CD40 IgG2 (antibody, V domains shown)
VH: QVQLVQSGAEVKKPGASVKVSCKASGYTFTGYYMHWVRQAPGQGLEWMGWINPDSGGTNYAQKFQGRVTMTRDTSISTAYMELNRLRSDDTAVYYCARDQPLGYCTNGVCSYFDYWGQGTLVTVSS
VL: B10 VL
B19: BEAT 1a2 CD40 arm (antibody, V domains shown)
VH: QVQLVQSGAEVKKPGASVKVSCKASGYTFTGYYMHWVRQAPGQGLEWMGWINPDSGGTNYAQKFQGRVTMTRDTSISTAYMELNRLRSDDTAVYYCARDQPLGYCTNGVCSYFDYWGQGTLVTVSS
VL: B10 VL
B20: BEAT 2b1 CD206 arm (antibody, V domains shown)
VH: EVQLVQSGAEVKKPGESLRISCKGSGDSFTTYWIGWVRQMPGKGLEWMGIIYPGDSDTIYSPSFQGQVTISADKSISTAYLQWSSLKASDTAMYYCTRGDRGVDYWGQGTLVTVSS
VL: DIQMTQSPSSLSASVGDRVTITCRASQGISRWLAWYQQKPEKAPKSLIYAASSLQSGVPSRFSGSGSGTDFTLTISGLQPEDFATYYCQQYNSYPRTFGQGTKVEIK
B21: BEAT 2a8 CD206 arm (antibody, V domains shown)
VH: B20 VH
VL: B20 VL
B22: BEAT 2a5 CD206 arm (antibody, V domains shown)
VH: B20 VH
VL: B20 VL
B23: anti-CD206 IgG1 (antibody, V domains shown)
VH: B20 VH
VL: B20 VL
B24: BEAT 2b2 CD206 arm (antibody, V domains shown)
VH: B20 VH
VL: B20 VL
B25: BEAT 2a3 CD206 arm (antibody, V domains shown)
VH: B20 VH
VL: B20 VL
B26: BEAT 2a7 CD206 arm (antibody, V domains shown)
VH: B20 VH
VL: B20 VL
B27: BEAT 2a6 CD206 arm (antibody, V domains shown)
VH: B20 VH
VL: B20 VL
B28: BEAT 2a4 CD206 arm (antibody, V domains shown)
VH: B20 VH
VL: B20 VL
B29: BEAT 2a2 CD206 arm (antibody, V domains shown)
VH: B20 VH
VL: B20 VL
B30: BEAT 2b3 CD206 arm (antibody, V domains shown)
VH: B20 VH
VL: B20 VL
B31: BEAT 2b4 CD206 arm (antibody, V domains shown)
VH: B20 VH
VL: B20 VL

Biological target: T2, FLAG-BAP (FLAG tag fused to bacterial alkaline phosphatase)
Assay: SPR

Kd	Binder
0.671 nM and 0.798 nM	B1
6.9 nM and 5.04 nM	B2
1.26 nM and 1.99 nM	B3
1.22 nM and 1.24 nM and 1.65 nM	B4
21.9 nM and 15.4 nM	B5
15.5 nM and 27.4 nM	B6
10.1 nM and 8.85 nM	B7
10.9 nM and 13.5 nM and 7.81 nM	B8

Biological target: T2, FLAG-BAP
Assay: SPR
Remark: another data set of the same source

Kd	Binder
6.59 nM and 9.46 nM	B9

Biological target: CD40 (human, UniProt P25942)
Assay: SPR

CD40, sequence (P25942 21-193): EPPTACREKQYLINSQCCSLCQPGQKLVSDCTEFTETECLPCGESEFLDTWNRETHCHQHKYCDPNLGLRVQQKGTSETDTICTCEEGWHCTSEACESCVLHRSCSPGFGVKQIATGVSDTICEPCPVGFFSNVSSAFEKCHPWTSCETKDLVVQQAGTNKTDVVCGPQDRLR

Kd	Binder
0.574 nM and 0.572 nM and 0.585 nM	B10
0.487 nM and 0.496 nM	B11
0.371 nM and 0.394 nM	B12
0.444 nM and 0.391 nM and 0.467 nM	B13
0.988 nM and 0.986 nM	B14
0.444 nM and 0.295 nM	B15
0.957 nM and 0.975 nM	B16
0.379 nM and 0.62 nM	B17
0.535 nM and 0.7 nM	B18
0.471 nM and 0.534 nM	B19

Biological target: T1, CD206
Assay: SPR

Kd	Binder
27.8 nM and 47 nM	B20
15.8 nM and 15.6 nM	B21
30.1 nM and 32.7 nM	B22
11.2 nM and 10.3 nM and 10.5 nM and 11.1 nM	B23
12.7 nM and 13.4 nM	B24
22.2 nM and 23.6 nM	B25
15.9 nM and 14.3 nM	B26
10.3 nM and 10.4 nM	B27
10.3 nM and 11.9 nM	B28
11.8 nM and 9.48 nM	B29
20.1 nM and 21.3 nM	B30
14 nM and 12.4 nM	B31
